Experiment [1] deals with VPS26A residues 1–317, the VPS26 part of the fusion VPS26(1–317)-DMT1(545–568) (human, UniProt O75436-1 1-317). The experiment in a line: crystal structure.
The next experiment has as its target full-length human SNX3 (human, UniProt O60493-1 1-162). The experiment in a line: crystal structure.

Non-standard residues stand in square brackets, D forms with d. No end group written: not given here. SeMet = C[Se]CC[C@H](N)C(=O)O

The text below walks through data of article PMC5147500 (Cell, 2016).

Turning to {VPS26(1–317)}-HLGLTAQPELYLLNTMDADSLVSR (peptide, UniProt P49281 545-568, looked up) [DMT1-II recycling signal residues 545–568, the DMT1 part of the fusion VPS26(1–317)-DMT1(545–568)], in experiment [1], the binding result was “binds”.

For {VPS26(1–321)}-TAQPELYLLNT[SeMet] (peptide, UniProt P49281 549-560, looked up) [DMT1-II recycling signal residues 549–560, the DMT1 part of the fusion VPS26(1–321)-DMT1(549–560)], the binding result in the experiment with full-length human SNX3 was “binds”.

With {VPS26(1–321)}-TAQPELYL[SeMet]NT[SeMet] (peptide, UniProt P49281 549-560, looked up), in the experiment with full-length human SNX3, the binding result is listed as “binds”.
